Assay results published in paper PMC9127447, “The Lipid-Binding Defective Dynamin 2 Mutant in Charcot-Marie-Tooth Disease Impairs Proper Actin Bundling and Actin Organization in Glomerular Podocytes” (Frontiers in Cell and Developmental Biology, 2022).
Positions count from the first letter of the chain named. Names and notes keep the numbering of the source.

B1: His-tagged rat dynamin 2-WT (enzyme, UniProt P39052 1-870, looked up)
chain: MGNRGMEELIPLVNKLQDAFSSIGQSCHLDLPQIAVVGGQSAGKSSVLENFVGRDFLPRGSGIVTRRPLILQLIFSKTEYAEFLHCKSKKFTDFDEVRQEIEAETDRVTGTNKGISPVPINLRVYSPHVLNLTLIDLPGITKVPVGDQPPDIEYQIKDMILQFISRESSLILAVTPANMDLANSDALKLAKEVDPQGLRTIGVITKLDLMDEGTDARDVLENKLLPLRRGYIGVVNRSQKDIEGRKDIRAALAAERKFFLSHPAYRHMADRMGTPHLQKTLNQQLTNHIRESLPTLRSKLQSQLLSLEKEVEEYKNFRPDDPTRKTKALLQMVQQFGVDFEKRIEGSGDQVDTLELSGGARINRIFHERFPFELVKMEFDEKDLRREISYAIKNIHGVRTGLFTPDLAFEAIVKKQVVKLKEPCLKCVDLVIQELISTVRQCTSKLSSYPRLREETERIVTTYIREREGRTKDQILLLIDIEQSYINTNHEDFIGFANAQQRSTQLNKKRAIPNQGEILVIRRGWLTINNISLMKGGSKEYWFVLTAESLSWYKDEEEKEKKYMLPLDNLKIRDVEKGFMSNKHVFAIFNTEQRNVYKDLRQIELACDSQEDVDSWKASFLRAGVYPEKDQAENEDGAQENTFSMDPQLERQVETIRNLVDSYVAIINKSIRDLMPKTIMHLMINNTKAFIHHELLAYLYSSADQSSLMEESAEQAQRRDDMLRMYHALKEALNIIGDISTSTVSTPVPPPVDDTWLQNTSSHSPTPQRRPVSSVHPPGRPPAVRGPTPGPPLIPMPVGATSSFSAPPIPSRPGPQNVFANNDPFSAPPQIPSRPARIPPGIPPGVPSRRAPAAPSRPTIIRPAEPSLLD
B2: His-tagged rat dynamin 2-K562E (enzyme, UniProt P39052 1-870, looked up)
chain: B1 chain with K562E

What was measured:
[1] = molecular target: Non-muscle actin (actin filaments) (UniProt P60709 1-375); test: cell-based or functional assay
[2] = molecular target: the molecule itself; test: cell-based or functional assay

Binder	release of free phosphate (GTPase activity) by dynamin 2 (1.5 uM) with actin filaments (1 uM), 100 mM KCl, relative to that without actin [1]	GTPase activity under low ionic strength buffer, relative to dynamin 2-WT [2]
B1	6 fold	
B2	4 fold	~0.33 of dynamin 2-WT
